Measured values published in the DeepSol protein solubility set.

assay: soluble on expression in E. coli; label from the status in PepcDB or PDB records

Sequence	soluble on expression in E. coli
MDSIGGVLNTMKKNLLITLALIIMSHHSAYAQDELTYIPIPKANQIADLNDLDKDGVINARDLCAGTPIGAEVDNDGCETYLHKEEQYQLK	not soluble
MDTIQKRPRTRLSPEKRKEQLLDIAIEVFSQRGIGRGGHADIAEIAQVSVATVFNYFPTREDLVDDVLNKVENEFHQFINNSISLDLDVRSNLNTLLLNIIDSVQTGNKWIKVWFEWSTSTRDEVWPLFLSTHSNTNQVIKTMFEEGIERNEVCNDHTPENLTKMLHGICYSVFIQANRNSSSEEMEETANCFLNMLCIYK	not soluble
MDTKNLTAVQLMELDSCTRCGECVKWCPTYAASGQKPGLAPRDKILRWRQYMNKSYGLKAKLFGPTEIPQSELEEFKDDVHGCTTCGICATVCESGINTVELWESLRTNLVKKGIGPFGKQGMFPKLEHHHHHH	not soluble
MDTPSLTPWLSIVGISEEGWLALTPIAQQCILQADILVGSDRHFDLLPSLPGAEQWRWGSPFSATITQILERRGQSICILASGDPMCYGVGSLLAQRLPLTELQILPAPSAFSLACSRLGWALPEVETLSLCGRDPALLNALLYPGAKILALSADRSTPATIAEQLCQQGWGSSRLTVLEHLGGPKERKISEIAEHWSQPTIASLNTVAIECHARDRDLIVPPRLTGLPDAAYHHDGQLTKREVRAITLAALAPLPGQLLWDVGAGCGSIGIEWMRSDRRCRAIAIEQHPQRLQIITQNAIALGVPNLQVVAGSAPATLSGLPQPDAIFIGGGVTAPGVLDQCWQALPMGGRLVVNAVTLESEQVVLAGQQRWGGDLIRVAVQRAEPIGRFLGWKSLAPITQWTVKKTALEHHHHHH	not soluble
MDTQQIDVMVADASHEVYVDTILETIRNAAKVRGTGIAERTHEYVATKMKEGKAIIALCGDVFAGFTYIESWGNKQYVATSGLIVHPDFRGLGLAKRIKQASFQLARLRWPRAKIFSLTSGAAVMKMNTELGYVPVT	soluble
MDTQTLNSDLRVFMHHIYEFEKGVRSMVLATLANDDIPYAEERLRSRQIPYFAQPTPNTERTNLFFGCKECMEAIRLFVSGRSLNSLTPEEDFIIGAMLGYDICRQCERYCRRKSNS	soluble
MDTSQKYRSNNEVDSPQIEHDKQALPSIESLYWGLQQNQQIQGIEQTGEPNGDNQPPQLVIDQLSYDQQQQQPKQNCFDTHGNMDDNRGLYNLPQGAENGSGHLVATESHQLHPPNYNLQQAQTPPPTRHSQYVDAAPQAYGSGQLVPENQRQPESAPDRPYQIMNVGCNPQSAQQHAQMEIPTMSHQLIGTCHNWQSGSQQGTSQNRKDFAGMQSCYGKDQHHQSALNGYHQLQAQPNLYPQHVSNQRPQWAMDQLGYYQQHQQQGPTWSDQNGNEGDNGGLYNHPQGAENGSGHLAATESHQLLPPSNNLQQVQIPAPTRHSQYVGASHLAYGSGQLVPENQLQPEPAPDRSYRKMNVGCNSQYAQQHAQMDQVIGTCHNCQSDSQQGTSQNRDNLAGMKGCCVKDQYHEPAPSGYHPPQAQSNCYPNHPPNPNMNAGDQDRQHVQLNFYTDPGFQQNSHVPYEMQQGFQTTGMQGSYQQNNQPELLFDSNNGNQTVNNAPNGNYQEPVYPLLQEGPTWNNNDNHDYFPSDDSMSQTSQEPVSVESIRKKTKRAKNKLEARKSLQKKKDDLKASRKSWEEVKINHNNILSSNNSNEENIKTAFDQVLYPCFTNQQVIGTFNIIRSYDEVQEGFAQFENDKQNIISKVDYLMKTDRNLKKLRMAKEVSEKQWEQFETDKKNRKEDDKKNKINGGNKLNGKTKIVSSITIATRCSRSKDKKETDAFKHDAKVLKFESSKQTQIKLCLKKYCDKFYPGVRMLLQHNWKFLRDNALHSGQSVQLEKLIECLKTFHLTEHAEKEHNLENS	not soluble
MDVGKRLKEVREMYGLSQRELAKRVGLTNSTISMIERDAVSPSISSLKKILEGVSLTVTEFFTLEIPTESQVVFKKDTLVDVGSDGVELHLVGTPQPDSKLAFLIERYQPGSSTGKDMITHIGEEAGTVIEGSIEITVAGRSFKLTKGDSYKFSTSLPHKFKNTSKKVCKIISAHTPPSF	not soluble
MDVIKISPRGYCYGVVDAMVIAKNASLDKSLPRPIYILGMIVHNKHVTDAFEEEGILTLDGSNRLDILKQVDKGTVIFTAHGVSPEVRRIAEEKGLVAIDATCPDVTKTHNLILEMKEKGYHVIYIGKKGHPEPEGAVGVAPEIVHLVETEEDVKNLDIQSEKLIVTNQTTMSQWDVHDIMELVKEKYPHVEYHQEICLATQVRQEAVSEQAKKADLTIVVGDPKSNNSNRLAQVSEEIAGTKAYRIGDLSELKLEWLKGVNTVAVTAGASTPTPITKEVIRFLEQFDHEDPSTWTTEHNIPLKKILPKVKAKN	not soluble
MDWFSWLSRTNLEASLIYEYGLSFSNNELEYEDIAYFNHEFLQSMGISIAKHRLEILKLARRDRKPSPLTARSIFRVLIAIKKTGKCFSEHVRAWIRREESSRALVVVSRSTSSSGNGRWKSARKKRLVMPSNGNGVKEERLLLTNGTPCRLDSFSNPKVSSGYEDDDNHWGNKDVEEKIKWDSMFQNLKPT	soluble
MDWRHEAVCRDEDPELFFPVGNSGPALAQVAAAKVVCNRCPVTSQCLAWALETGQDAGVWGGMSEDERRALKRRKNRGRGRARATA	not soluble
MDWRHKAVCRDEDPELFFPVGNSGPALAQIADAKLVCNRCPVTTECLSWALNTGQDSGVWGGMSEDERRALKRRNARTKARTGV	not soluble
MDYHIQEEKILEVLKENVYGLRGSIAFSGGLDSSLLYVISDRNLVPYTVGYSFSHDVNRAKFVLSLLNGSGKYVTLDEINIENYVKYLKSEYPDINKVEISFELVLEILLENVDSDLLVTGQGADELFFGYKRSVNEMDNSLQMERLLKRTIPREKDMAKRQGKELVTPFLDDRILKLASEISPAYHCLYGGKKALREIAKIAGLPEEVYGYRKKAAQYGSGIDKALKSVSYFGLF	not soluble
MDYQERLKNLPPEVMTAFSESFIFLISNDKVQHFPARDLTQAEMIQRVKEKLGEAVTWSLWQGFVIAVNSEETCVAVLPKYYQLDGFENE	not soluble
MEAIKDKERKERRDKKLAIANLAAKQKREKKKQQKNGAELAARARKAKAEKAKTSEPPAQGVVTRAAAQKAREAAQAANHQ	not soluble
MEALDLLLNRRSIAKLDAPAPQNEALDNILRAGLRAPDHGALTPWRFVVAQGEGLAKLAAILEQAEIANGSDEAVISKAKNAPFRAPMVITVIAKVTHSEKIPAFEQHLSAGCAVQAMQMAAIAQGFQGIWRSGSWMFHPVVRRAFNVQGEDHIVGFLYLGTPGTTAAKVPERELSKYVEYL	not soluble
MEANILSTHKSKILVFKGWSERQKSVVFIPIEAVLEGHNIEVQFFEKPNEPVTFQVKDKNGNIVFQDMTTPDNLEIYQIDVSGFKTGQYELLYIEKDVTLIGEFEIE	not soluble
MEASKYVGQGFQPPAEKDAVEFAKKHKDKIAKRGEQFFMDNFGLKVKATNVVGSGDGVEVFVHCDDHDIVFNASIPFDKSIIDSDSSLRSEDKGDDMSTLVGTVLSGFEYRAQKEKYDNLYKFFKENEKKYQYTGFTKEAINKTQNSGYENEYFYIVANIPTLQEYRKYYEPLIKKNNLNFKKGMKQARKGVGYKAAIEVHTTLFSRSSNFSKDKKLDDVIDLSESTKKLHLNFENTKIFLQLAKSTISTNRVNYSDNESIRIEVELEHHHHHH	not soluble
MEATQQAERKSMNKSQAFANASHDIRGALAGMKGLIDICRDGVKPGSDVDTTLNQVNVCAKDLVALLNSVLDMSKIESGKMQLVEEDFNLSKLLEDVIDFYHPVAMKKGVDVVLDPHDGSVFKFSNVRGDSGRLKQILNNLVSNAVKFTVDGHIAVRAWAQRPGSNSSVVLASYPKGVSKFVKSMFCKNKEESSTYETEISNSIRNNANTMEFVFEVDDTGKGIPMEMRKSVFENYVQVRETAQGHQGTGLGLGIVQSLVRLMGGEIRITDKAMGEKGTCFQFNVLLTTLESPPVSDMK	not soluble
MEAVLYVSHGSRIAAARHEAARFVEQCRRAIDIPIQELCFVELAEPDIVTGVDRCVAQGATRVIVVPLLLLSAGHAKHDIPAALDIARRRHPSVDILCGAPFGVHEAMIDIMIDRISEQSAPLDGESMILLVGRGSSDPDTKRDMSAIAALLKEKTNVPHVDVCFLAAIRPTLDEGLERAHASAYRRVFVVPYLLFTGVLMKTIERRLQGFSVSDKQWHLCSYLGDHPRLVLLIQQQVLSLSSVKKGA	soluble
MEDEDVPVCWICNEELGNERFRACGCTGELENVHRSCLSTWLTISRNTACQICGVVYNTR	soluble
MEDIGADSDDFFSLAEELPQNEDLLESEDDAPIIKLINAMLGEAIKEGASDIHIETFEKTLSIRFRVDGVLREVLAPSRKLSSLLVSRVKVMAKLDIAEKRVPQDGRISLRIGGRAVDVRVSTMPSSHGERVVMRLLDKNATRLDLHSLGMTAHNHDNFRRLIKRPHGIILVTGPTGSGKSTTLYAGLQELNSSERNILTVEDPIEFDIDGIGQTQVNPRVDMTFARGLRAILRQDPDVVMVGEIRDLETAQIAVQASLTGHLVMSTLHTNTAVGAVTRLRDMGIEPFLISSSLLGVLAQRLVRTLCPDCKEPYEADKEQRKLFDSKKKEPLILYRATGCPKCNHKGYRGRTGIHELLLVDDALQELIHSEAGEQAMEKHIRATTPSIRDDGLDKVRQGITSLEEVMRGSRSHHHHHH	soluble
MEDSCVLRGVMINKDVTHPRMRRYIKNPRIVLLDSSLEYKKGESQTDIEITREEDFTRILQMEEEYIHQLCEDIIQLKPDVVITEKGISDLAQHYLMRANVTAIRRVRKTDNNRIARACGARIVSRPEELREDDVGTGAGLLEIKKIGDEYFTFITDCKDPKACTILLRGASHHHHHH	soluble
MEDVFKGIEKEIIKIYKIPERKGRFSNFKFKNKEINELIDALGFKLYLHQVKALKYLYNKKDVVVTTSTASGKSEIFRLAIFDNFLSNPDDRYLLIYPTRALINNQYEKFSMENELFYKITNKRVKAEILTGDVGLEKRREILKDKPNVLFTTPDMLHYQILKNHNNYLWLLKNLKLLVVDELHVYRGVFGTNMVYVFKRLLKLLKRLNNNLQILCLSATLKNPKEFVKLLFNRDFEVVD	not soluble
MEEALKENIMGALEQVVDPELGVDIVNLGLVYDVDMDEDGLTHITMTLTSMGCPLAPIIVDEVKKALADLPEVKDTEVHIVWNPPWTRDKMSRYAKIALGIQLEHHHHHH	not soluble
MEEAVSPLGLDVLEVHFARGELLVRLERKDERPITVADLEEASRHIEAALDREDPIPGSYRLLVESPGPKRPLFTRRHFERFQGLKAKVPGPEGFTGRILRVEGEEVVFQVGDEERRLRIGTFRANLAEWPEEPR	soluble
MEEDIVRLFYKGSEIILIGTSHISAESADLVRKTIQEENPDTICIEWDQKRYKKNIHPDEWDDTDIVKIIKNKQFPVFIFGVIYKLFQKKVSQDMNSLVGKEFVVAVDESKKLNIKFYLIDRDSSLTFKRAWRMLNFREKVKLPYAFGKIFEGAEETEEEVQNLLESENFEPVFEELKESYPNLWEVFVTERDDYLATKIQNTANGKTVAVLGKAHLKGVSDRLKNNQKSDLQKLEIIPPKK	not soluble
